Source: patent US20060252140A1

Molecular target: hyperactive SB transposase mutant HSB5
Test: cell-based or functional assay

## E2C/SB-5 fusion protein
  integration frequency against cells containing the E2C/SB-5 fusion protein without the limiting amount of HSB5 (142 colonies): 4 fold
  integration frequency against cells expressing the same limiting amount of HSB5 transposase alone (58 colonies): 10 fold
